Experiments:
[1] = system: P34 N-terminus-RRM1 (lacks RRM2 and C-terminus) (Trypanosoma brucei); experiment: filter binding; conditions: Filter binding: 10 mM Tris pH 7.4, 1 mM EDTA, 100 mM NaCl, 100 ug/ml BSA, 30 min, room temperature; 0.05 nM 5S rRNA, 0-300 nM protein; Bmax fixed at 100%
[2] = system: P34 Y176A (Trypanosoma brucei); experiment: filter binding; conditions: Filter binding: 10 mM Tris pH 7.4, 1 mM EDTA, 100 mM NaCl, 100 ug/ml BSA, 30 min, room temperature; 0.05 nM 5S rRNA, 0-300 nM protein; Bmax fixed at 100%
[3] = system: P34 Y60A (Trypanosoma brucei); experiment: filter binding; conditions: Filter binding: 10 mM Tris pH 7.4, 1 mM EDTA, 100 mM NaCl, 100 ug/ml BSA, 30 min, room temperature; 0.05 nM 5S rRNA, 0-300 nM protein; Bmax fixed at 100%
[4] = system: P34 Y174A (Trypanosoma brucei); experiment: filter binding; conditions: Filter binding: 10 mM Tris pH 7.4, 1 mM EDTA, 100 mM NaCl, 100 ug/ml BSA, 30 min, room temperature; 0.05 nM 5S rRNA, 0-300 nM protein; Bmax fixed at 100%
[5] = system: P34 F141A (Trypanosoma brucei); experiment: filter binding; conditions: Filter binding: 10 mM Tris pH 7.4, 1 mM EDTA, 100 mM NaCl, 100 ug/ml BSA, 30 min, room temperature; 0.05 nM 5S rRNA, 0-300 nM protein; Bmax fixed at 100%
[6] = system: P34 Y92A (Trypanosoma brucei); experiment: filter binding; conditions: Filter binding: 10 mM Tris pH 7.4, 1 mM EDTA, 100 mM NaCl, 100 ug/ml BSA, 30 min, room temperature; 0.05 nM 5S rRNA, 0-300 nM protein; Bmax fixed at 100%
[7] = system: P34 N-terminus-RRM1-RRM2 (lacks C-terminus) (Trypanosoma brucei); experiment: filter binding; conditions: Filter binding: 10 mM Tris pH 7.4, 1 mM EDTA, 100 mM NaCl, 100 ug/ml BSA, 30 min, room temperature; 0.05 nM 5S rRNA, 0-300 nM protein; Bmax fixed at 100%
[8] = system: P34 RRM2 (Trypanosoma brucei); experiment: filter binding; conditions: Filter binding: 10 mM Tris pH 7.4, 1 mM EDTA, 100 mM NaCl, 100 ug/ml BSA, 30 min, room temperature; 0.05 nM 5S rRNA, 0-300 nM protein; Bmax fixed at 100%
[9] = system: P34 RRM1 (Trypanosoma brucei); experiment: filter binding; conditions: Filter binding: 10 mM Tris pH 7.4, 1 mM EDTA, 100 mM NaCl, 100 ug/ml BSA, 30 min, room temperature; 0.05 nM 5S rRNA, 0-300 nM protein; Bmax fixed at 100%
[10] = system: P34 RRM1-RRM2 (Trypanosoma brucei); experiment: filter binding; conditions: Filter binding: 10 mM Tris pH 7.4, 1 mM EDTA, 100 mM NaCl, 100 ug/ml BSA, 30 min, room temperature; 0.05 nM 5S rRNA, 0-300 nM protein; Bmax fixed at 100%
[11] = system: P34 R91A, Y92A (Trypanosoma brucei); experiment: filter binding; conditions: Filter binding: 10 mM Tris pH 7.4, 1 mM EDTA, 100 mM NaCl, 100 ug/ml BSA, 30 min, room temperature; 0.05 nM 5S rRNA, 0-300 nM protein; Bmax fixed at 100%
[12] = system: P34 full length (WT) (Trypanosoma brucei); experiment: filter binding; conditions: Filter binding: 10 mM Tris pH 7.4, 1 mM EDTA, 100 mM NaCl, 100 ug/ml BSA, 30 min, room temperature; 0.05 nM 5S rRNA, 0-300 nM protein; Bmax fixed at 100%
[13] = target: P34 R91A, Y92A mutated protein (Trypanosoma brucei); experiment: co-IP; immune capture: beads coated with anti-P34/P37 antibody incubated with the recombinant proteins (1 μg each) for 1 hr at 4°C, washed three times in PBS-T, eluted in SDS sample buffer; bound L5 (pellet) detected by western blot with anti-L5 antibody; pellet signal normalised to L5 + P34 FL, set to 1; at least three biological replicates
[14] = target: P34 R88-91K mutated protein (Trypanosoma brucei); experiment: as above
[15] = target: P34 RRM1-RRM2 truncate (the RRM domains alone) (Trypanosoma brucei); experiment: as above
[16] = target: P34 R91A mutated protein (Trypanosoma brucei); experiment: as above
[17] = target: P34 R88-91A mutated protein (Trypanosoma brucei); experiment: as above
[18] = target: P34 RRM1 truncate protein (Trypanosoma brucei); experiment: as above
[19] = target: P34 N-terminus-RRM1 truncate (P34 lacking both RRM2 and the C-terminus) (Trypanosoma brucei); experiment: as above
[20] = target: P34 N-terminus-RRM2 truncate (P34 lacking the C-terminus) (Trypanosoma brucei); experiment: as above
[21] = target: P34 RRM2 truncate protein (Trypanosoma brucei); experiment: as above

Q: Which results are given for 5S rRNA?
A: Kd [1]: 103 nM; binding signal (fold affinity increase vs WT) [2]: 2; binding signal (fold affinity increase vs WT) [3]: 2; binding signal (fold affinity increase vs WT) [4]: 2; binding signal (fold affinity increase vs WT) [5]: 2; binding signal (fold affinity increase vs WT) [6]: 2; Kd [7]: 66 nM; Kd [8]: 297 nM; Kd [9]: 69 nM; Kd [10]: 67 nM; binding signal (fold affinity increase vs WT) [11]: 2; Kd [12]: 30 nM

Q: Which results are given for ribosomal protein L5 (natural protein)?
A: amount of L5 bound relative to P34 WT (set as 1) (relative to P34 WT = 1) [13]: 1.5; amount of L5 bound relative to P34 WT (set as 1) (relative to P34 WT = 1) [14]: 0.75; amount of L5 bound relative to P34 full length (set as 1) (relative to P34 full length = 1) [15]: 0.64; amount of L5 bound relative to P34 WT (set as 1) (relative to P34 WT = 1) [16]: 1.3; amount of L5 bound relative to P34 WT (set as 1) (relative to P34 WT = 1) [17]: 0.45; amount of L5 bound relative to P34 full length (set as 1) (relative to P34 full length = 1) [18]: 0.65; amount of L5 bound relative to P34 full length (set as 1) (relative to P34 full length = 1) [19]: 0.93; amount of L5 bound relative to P34 full length (set as 1) (relative to P34 full length = 1) [20]: 1.1; amount of L5 bound relative to P34 full length (set as 1) (relative to P34 full length = 1) [21]: 0.54
